Measured values: US8624002B2, “Prostaglandin E2 binding proteins and uses thereof” (AbbVie, Inc., priority 2008, dated 2014)
Changes are numbered by the printed parent chain.

B1: 2B5-8.0: recombinant anti-PGE2 antibody from solved 2B5 sequence; VH SEQ ID NO 42, VL SEQ ID NO 43 (antibody, V domains shown)
VH: QVQLQQSGPELVRPGSSVKISCKASGYTFTKYWLGWVKQRPGHGLEWIGDIYPGYDYTHYNEKFKDKATLTVDTSSSTAYMQLSSLTSEDSAIYYCARSDGSSTYWGQGTLVTVSA
VL: DVLMTQTPLSLPVSLGDQASISCTSSQNIVHSNGNTYLEWYLQRPGQSPKLLIYKVSNRFSGVPDRFSGSGSGTVFTLKISRVEAEDLGVYYCFQVSHVPYTFGGGTKLEIKR
B2: Hu2B5.4: humanized 2B5-8.0; VH SEQ ID NO 66, VL SEQ ID NO 67 (antibody, V domains shown)
VH: EVQLVQSGAEVKKPGASVKVSCKASGYTFTKYWLGWVRQAPGQGLEWIGDIYPGYDYTHYNEKFKDRATLTVDTSTSTAYMELSSLRSDDTAVYYCARSDGSSTYWGQGTLVTVSS
VL: B1 VL with S14T, L15P, D17E, Q18P, R44K, K50Q, V75D, L88V, L109V

Assays:
[1] = Biotin-PGE2 competition ELISA (prostaglandin selectivity); assay type: binding
Procedure: Competition enzyme linked immunosorbent assays were performed to determine prostaglandin binding specificity for antibodies that bind prostaglandin E2, according to at least one of the two following methods.
ELISA plates (Costar 3369, Corning, N.Y.) were coated with 50 μl/well of anti-host Fc IgG (Sigma, St. Louis, Mo.) at 2 μg/ml in PBS (Invitrogen, Carlsbad, Calif.). Following an overnight incubation at 4° C., the plate was blocked with 200 μl Superblock (Pierce #37535, Rockford, Ill.). The IgG samples were diluted to 6 μg/ml in Assay Buffer (10% Superblock in PBS containing 0.05% Surfactamps (Pierce #37535, Rockford, Ill.). The PGE2-biotinamide was diluted to 3 nM in Assay Buffer. A titration curve in Assay Buffer was prepared for the prostaglandins PGA2 (Cayman Chemicals, Ann Arbor, Mich.), PGD2 (Cayman Chemicals, Ann Arbor, Mich.) and PGE2 (Cayman Chemicals, Ann Arbor, Mich.) starting at 300 nM by a 1:10 serial dilution. The reagents were added to tubes at a volume of 50 μl each/tube and preincubated for 1 hour at room temperature. Following the preincubation, the mix was transferred to the blocked plates and allowed to incubate for 1 hour at room temperature. Next, the plates were washed four times with Tween 20-Tris buffered solution (TTBS). Streptavidin polyhrp40 in Assay Buffer (Fitzgerald Industries, Concord, Mass.) at a 1:5000 dilution was then added to the wells and incubated for 45 minutes at room temperature. A final wash step was performed and the plates were developed using a single step TMB system (Sigma #T8665, Sigma, St. Louis, Mo.) and 100 μl/well 2N H2SO4. Plates were read at 450 nm on a Molecular Devices Spectramax plate reader (Sunnyvale, Calif.). […] IC50 number was determined using GraphPad Prism 5 (GraphPad Software, La Jolla, Calif.). The cross reactivity index was then calculated by IC50 of PGE2/IC50 of other prostaglandin(s).

[2] = Pharmacokinetics of hu2B5.7 and hu2B5.4 in Sprague-Dawley rats; assay type: in vivo; conditions: male Sprague-Dawley rats, IV 4 mg/kg
Procedure: Pharmacokinetic parameters were calculated by non-compartmental analysis using WinNonlin.
MSD streptavidin plates (Meso Scale Discovery) were washed with phosphate buffered saline containing 0.05% Tween-20 (diluted from 10×PBS, Abbott Bioresearch Center, Media Room, Worcester, Mass. and Tween-20, Sigma, St. Louis, Mo.). Plates were blocked with 250 μL/well blocking solution (MSD Block, Meso Scale Discovery, diluted to 3% final concentration in PBS) for 1 hour, covered, with shaking (600 rpm) at room temperature. After washing, 70 μL of biotinylated PGE2 (Prostoglandin E2-biotinamide, Cayman Chemical, Ann Arbor, Mich., cat# 10006987, lot# 190831-191028; 0.01 ug/mL in assay buffer) was added to each well. The plates were covered and incubated with shaking (600 rpm) for 1 hour at room temperature.
Prior to analysis, rat serum samples were thawed on ice, mixed gently, and centrifuged at 14,000 rpm for 3 minutes at 4° C. in an eppendorf centrifuge. Standard curve and control samples were prepared in rat serum. Tecan Evo automated liquid handling station was used to dilute standard curve, high, medium, and low controls, and serum samples in assay buffer, keeping 1% final serum concentration constant. MSD plates were washed again and study samples, standard curve samples and blanks, as well as high, medium, and low controls were added (70 μL/well). The plates were covered, and incubated for 1 hour with shaking (600 rpm) at room temperature.
After incubation, the MSD plates were washed, and 70 μL sulfo-tagged goat anti-human IgG (Meso Scale Discovery; diluted to 1 ug/mL in assay buffer) was added to each well. The MSD plates were covered, and incubated with shaking (600 rpm) for 1 hour at room temperature, then the plates were washed and developed with 2× Read Buffer (Meso Scale Discovery). Chemilumeniscence was measured within ten minutes on the MSD Sector Imager 6000.
Standard curves were analyzed using four-parameter logistic fit and sample concentrations were calculated by XLfit4 software version 2.2.1 Build 16, ([…].). Pharmacokinetic parameters were calculated for each animal using Winonlin software version 5.0.1 (Pharsight Corporation, Mountain View, Calif.) by noncompartmental analysis.
Surgically altered jugular vein cannulated, JVC) male Sprague-Dawley Rats (approximately seven weeks old, weighing 240-390 grams) were purchased from Charles River Laboratories (Wilmington, Mass.). The animals were housed in rooms maintained at constant temperature and humidity under a 12 hour light/dark cycle, fed with normal rodent chow and were allowed food and water ad libitum. Hydration and clinical conditions of the animals were monitored daily.
0.2 mL blood samples were collected from the rats at various timepoints, allowed to clot for 30 minutes at room temperature, centrifuged for 3 minutes at 13,200 rpm, the serum transferred to eppendorf tubes and stored frozen at −80° C.

Molecule	PG Selectivity in Biotin-PGE2 Competition ELISA (CRI %) PGA2 ([1]; PGA2) [%]	PG Selectivity in Biotin-PGE2 Competition ELISA (CRI %) PGD2 ([1]; PGD2) [%]	PG Selectivity in Biotin-PGE2 Competition ELISA (CRI %) PGE1 ([1]; PGE1) [%]	AUC0-∞ [2] [µg·h/mL]	CL [2] [mL/day/kg]	MRT [2] [days]	T½ [2] [days]	Vss [2] [L/kg]	Vz [2] [L/kg]
B1	0.21	<0.01	28	–	–	–	–	–	–
B2	–	–	–	11800 ± 2000	8.4 ± 1.7	18.0 ± 6.0	12.4	0.145 ± 0.0318	0.143 ± 0.0402
